The record followed here is patent US20250262210A1 (TRUSTEES OF COLUMBIA UNIVERSITY IN THE CITY OF NEW YORK, published 2025).

One assay concerns the target T1, SREBF2 (human, UniProt Q12772 1-1141, limits assumed).
T1 sequence (looked up): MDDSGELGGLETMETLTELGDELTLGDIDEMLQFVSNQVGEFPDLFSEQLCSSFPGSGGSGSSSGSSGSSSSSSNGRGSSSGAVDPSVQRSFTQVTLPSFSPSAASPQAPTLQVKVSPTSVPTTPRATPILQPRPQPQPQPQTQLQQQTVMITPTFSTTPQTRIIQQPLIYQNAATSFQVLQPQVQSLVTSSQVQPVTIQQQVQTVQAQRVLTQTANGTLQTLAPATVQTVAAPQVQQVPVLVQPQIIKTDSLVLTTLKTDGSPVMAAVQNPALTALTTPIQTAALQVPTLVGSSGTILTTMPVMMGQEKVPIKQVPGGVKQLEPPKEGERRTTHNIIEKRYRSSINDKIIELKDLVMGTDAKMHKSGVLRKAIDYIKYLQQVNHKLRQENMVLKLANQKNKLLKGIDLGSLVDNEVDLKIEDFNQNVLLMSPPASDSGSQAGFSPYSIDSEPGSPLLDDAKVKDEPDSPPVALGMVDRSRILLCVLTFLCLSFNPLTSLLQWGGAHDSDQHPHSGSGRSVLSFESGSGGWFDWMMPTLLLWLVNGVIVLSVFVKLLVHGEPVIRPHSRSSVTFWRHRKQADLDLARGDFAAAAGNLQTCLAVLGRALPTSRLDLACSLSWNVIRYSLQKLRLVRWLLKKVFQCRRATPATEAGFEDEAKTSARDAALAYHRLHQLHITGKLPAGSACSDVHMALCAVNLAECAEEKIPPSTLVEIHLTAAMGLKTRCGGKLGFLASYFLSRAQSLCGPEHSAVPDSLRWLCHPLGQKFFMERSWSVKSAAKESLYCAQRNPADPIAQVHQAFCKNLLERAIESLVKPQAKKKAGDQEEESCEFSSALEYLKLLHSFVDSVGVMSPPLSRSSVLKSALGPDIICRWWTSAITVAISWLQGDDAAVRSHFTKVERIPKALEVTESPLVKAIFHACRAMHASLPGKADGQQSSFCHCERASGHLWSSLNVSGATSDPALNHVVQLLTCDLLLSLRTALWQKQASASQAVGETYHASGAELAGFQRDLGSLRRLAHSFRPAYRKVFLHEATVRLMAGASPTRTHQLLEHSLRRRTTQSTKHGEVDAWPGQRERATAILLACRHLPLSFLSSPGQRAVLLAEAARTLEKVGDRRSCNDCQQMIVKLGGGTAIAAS
In words: IP/MS, LZTR1 R810W-FLAG, U87. The method, boiled down:
(§1)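 Read-out: spectral counts from LC-MS/MS (Orbitrap Fusion) after MaxQuant identification. Variable modifications were Met oxidation, protein N-terminal acetylation and N/Q deamidation.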

The target of a further assay is T2, AMBRA1 (human, UniProt Q9C0C7 1-1298, limits assumed).
T2 sequence (looked up): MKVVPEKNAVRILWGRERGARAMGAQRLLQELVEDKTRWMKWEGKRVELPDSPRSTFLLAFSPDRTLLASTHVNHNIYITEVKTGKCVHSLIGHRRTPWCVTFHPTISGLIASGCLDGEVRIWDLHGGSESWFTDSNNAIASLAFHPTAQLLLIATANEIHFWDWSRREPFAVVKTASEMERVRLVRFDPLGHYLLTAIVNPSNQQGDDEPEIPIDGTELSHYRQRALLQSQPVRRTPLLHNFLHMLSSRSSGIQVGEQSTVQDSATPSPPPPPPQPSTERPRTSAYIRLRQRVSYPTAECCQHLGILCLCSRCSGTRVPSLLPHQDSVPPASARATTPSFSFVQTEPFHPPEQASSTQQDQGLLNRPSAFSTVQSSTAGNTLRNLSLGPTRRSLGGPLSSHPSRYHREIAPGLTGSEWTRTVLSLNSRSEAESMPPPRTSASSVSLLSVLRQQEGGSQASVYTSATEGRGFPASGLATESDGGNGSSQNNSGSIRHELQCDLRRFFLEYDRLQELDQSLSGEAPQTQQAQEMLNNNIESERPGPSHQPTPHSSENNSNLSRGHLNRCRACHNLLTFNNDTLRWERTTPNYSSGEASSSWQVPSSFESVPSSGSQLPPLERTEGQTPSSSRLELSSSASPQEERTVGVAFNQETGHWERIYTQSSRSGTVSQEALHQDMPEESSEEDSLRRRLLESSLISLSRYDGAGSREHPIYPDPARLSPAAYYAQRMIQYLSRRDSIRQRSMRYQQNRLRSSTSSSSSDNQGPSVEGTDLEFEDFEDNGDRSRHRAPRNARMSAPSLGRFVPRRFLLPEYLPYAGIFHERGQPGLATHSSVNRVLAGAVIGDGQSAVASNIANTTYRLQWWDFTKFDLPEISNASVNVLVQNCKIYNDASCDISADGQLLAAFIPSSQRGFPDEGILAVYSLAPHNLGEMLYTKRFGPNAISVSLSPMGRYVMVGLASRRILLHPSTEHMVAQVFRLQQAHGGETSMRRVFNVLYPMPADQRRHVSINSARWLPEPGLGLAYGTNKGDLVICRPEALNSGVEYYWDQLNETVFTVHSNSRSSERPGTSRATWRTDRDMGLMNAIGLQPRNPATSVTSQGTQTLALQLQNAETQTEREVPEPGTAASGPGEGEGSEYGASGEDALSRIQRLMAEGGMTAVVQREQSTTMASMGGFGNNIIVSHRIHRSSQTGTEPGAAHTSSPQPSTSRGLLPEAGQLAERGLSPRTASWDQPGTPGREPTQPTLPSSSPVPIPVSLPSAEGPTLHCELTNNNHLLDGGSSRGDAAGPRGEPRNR
In words: IP/MS, LZTR1 R810W-FLAG, U87. The method, boiled down:
as §1

B1: LZTR1 R810W-FLAG (other, human, UniProt Q8N653 1-840, looked up)
chain: MAGPGSTGGQIGAAALAGGARSKVAPSVDFDHSCSDSVEYLTLNFGPFETVHRWRRLPPCDEFVGARRSKHTVVAYKDAIYVFGGDNGKTMLNDLLRFDVKDCSWCRAFTTGTPPAPRYHHSAVVYGSSMFVFGGYTGDIYSNSNLKNKNDLFEYKFATGQWTEWKIEGRLPVARSAHGATVYSDKLWIFAGYDGNARLNDMWTIGLQDRELTCWEEVAQSGEIPPSCCNFPVAVCRDKMFVFSGQSGAKITNNLFQFEFKDKTWTRIPTEHLLRGSPPPPQRRYGHTMVAFDRHLYVFGGAADNTLPNELHCYDVDFQTWEVVQPSSDSEVGGAEVPERACASEEVPTLTYEERVGFKKSRDVFGLDFGTTSAKQPTQPASELPSGRLFHAAAVISDAMYIFGGTVDNNIRSGEMYRFQFSCYPKCTLHEDYGRLWESRQFCDVEFVLGEKEECVQGHVAIVTARSRWLRRKITQARERLAQKLEQEAAPVPREAPGVAAGGARPPLLHVAIREAEARPFEVLMQFLYTDKIKYPRKGHVEDVLLIMDVYKLALSFQLCRLEQLCRQYIEASVDLQNVLVVCESAARLQLSQLKEHCLNFVVKESHFNQVIMMKEFERLSSPLIVEIVRRKQQPPPRTPLDQPVDIGTSLIQDMKAYLEGAGAEFCDITLLLDGHPRPAHKAILAARSSYFEAMFRSFMPEDGQVNISIGEMVPSRQAFESMLRYIYYGEVNMPPEDSLYLFAAPYYYGFYNNRLQAYCKQNLEMNVTVQNVLQILEAADKTQALDMKRHCLHIIVHQFTKVSKLPTLWSLSQQLLLDIIDSLASHISDKQCAELGADI
notes: Stably expressed in U87 cells by lentivirus; also called LZTR1-FLAG-R810W; LZTR1 RW; not shown: FLAG tag
With B1, the binding result with SREBF2 and with AMBRA1 was “binds” each time.
